Reference: patent publication US20210346432A1 (Memorial Sloan Kettering, published 2021)
No end group written: not given here. *: point of attachment. Biotin = O=C1N[C@H]2[C@H](CS[C@H]2CCCCC(=O)*)N1

Legend:
[1] = molecular target: T1, ET140-p4 (human); assay: peptide ELISA, biotin peptide on streptavidin plate
T1 construct: also called peptide 4
T1 peptide: Biotin-SGSGAGQCSQNEYFDSLLH
Procedure: (§1) The peptides were coated onto Streptavidin plates at 2 ug/mL in PBST (PBS+0.05% Tween-20). After washing and blocking with 3% BSA. […] “mIgG1” used in all Examples represents that the variable region is fully human and the Fc part is mouse IgG1. Then HRP anti-mouse IgG detection antibody was added to each well. Finally, the color was developed using TMB substrate. A450 was recorded for data analysis.

[2] = molecular target: T2, ET140-p13 (human, cysteine pairing not given here); assay: as above
T2 construct: also called peptide 13
T2 peptide: Biotin-SGSGFDSLLHACIPCQLRC
Procedure: as §1

[3] = molecular target: T3, ET140-p19 (human, cysteine pairing not given here); assay: as above
T3 construct: also called peptide 19
T3 peptide: Biotin-SGSGACIPCQLRCSSNTPP
Procedure: as §1

[4] = molecular target: T4, ET140-p38 (human); assay: as above
T4 construct: also called peptide 38
T4 peptide: Biotin-SGSGRYCNASVTNSVKGTN
Procedure: as §1

[5] = molecular target: T5, ET140-p26 (human, cysteine pairing not given here); assay: as above
T5 construct: also called peptide 26
T5 peptide: Biotin-SGSGRCSSNTPPLTCQRYC
Procedure: as §1

[6] = molecular target: T6, ET140-p27 (human, cysteine pairing not given here); assay: as above
T6 construct: also called peptide 27
T6 peptide: Biotin-SGSGCSSNTPPLTCQRYCN
Procedure: as §1

[7] = molecular target: T7, ET140-p37 (human); assay: as above
T7 construct: also called peptide 37
T7 peptide: Biotin-SGSGQRYCNASVTNSVKGT
Procedure: as §1

[8] = molecular target: T8, ET140-p35 (human, cysteine pairing not given here); assay: as above
T8 construct: also called peptide 35
T8 peptide: Biotin-SGSGTCQRYCNASVTNSVK
Procedure: as §1

[9] = molecular target: T9, ET140-p16 (human, cysteine pairing not given here); assay: as above
T9 construct: also called peptide 16
T9 peptide: Biotin-SGSGLLHACIPCQLRCSSN
Procedure: as §1

[10] = molecular target: T10, ET140-p30 (human, cysteine pairing not given here); assay: as above
T10 construct: also called peptide 30
T10 peptide: Biotin-SGSGNTPPLTCQRYCNASV
Procedure: as §1

[11] = molecular target: T11, ET140-p18 (human, cysteine pairing not given here); assay: as above
T11 construct: also called peptide 18
T11 peptide: Biotin-SGSGHACIPCQLRCSSNTP
Procedure: as §1

[12] = molecular target: T12, ET140-p1 (human); assay: as above
T12 construct: also called peptide 1; ET140-pl
T12 peptide: Biotin-SGSGLQMAGQCSQNEYFDS
Procedure: as §1

[13] = molecular target: T13, ET140-p24 (human, cysteine pairing not given here); assay: as above
T13 construct: also called peptide 24
T13 peptide: Biotin-SGSGQLRCSSNTPPLTCQR
Procedure: as §1

[14] = molecular target: T14, ET140-p23 (human, cysteine pairing not given here); assay: as above
T14 construct: also called peptide 23
T14 peptide: Biotin-SGSGCQLRCSSNTPPLTCQ
Procedure: as §1

[15] = molecular target: T15, ET140-p28 (human, cysteine pairing not given here); assay: as above
T15 construct: also called peptide 28
T15 peptide: Biotin-SGSGSSNTPPLTCQRYCNA
Procedure: as §1

[16] = molecular target: T16, ET140-p9 (human, cysteine pairing not given here); assay: as above
T16 construct: also called peptide 9
T16 peptide: Biotin-SGSGQNEYFDSLLHACIPC
Procedure: as §1

[17] = molecular target: T17, ET140-p17 (human, cysteine pairing not given here); assay: as above
T17 construct: also called peptide 17
T17 peptide: Biotin-SGSGLHACIPCQLRCSSNT
Procedure: as §1

[18] = molecular target: T18, ET140-p20 (human, cysteine pairing not given here); assay: as above
T18 construct: also called peptide 20
T18 peptide: Biotin-SGSGCIPCQLRCSSNTPPL
Procedure: as §1

[19] = molecular target: T19, ET140-p8 (human); assay: as above
T19 construct: also called peptide 8
T19 peptide: Biotin-SGSGSQNEYFDSLLHACIP
Procedure: as §1

[20] = molecular target: T20, ET140-p21 (human, cysteine pairing not given here); assay: as above
T20 construct: also called peptide 21
T20 peptide: Biotin-SGSGIPCQLRCSSNTPPLT
Procedure: as §1

[21] = molecular target: T21, ET140-p32 (human, cysteine pairing not given here); assay: as above
T21 construct: also called peptide 32
T21 peptide: Biotin-SGSGPPLTCQRYCNASVTN
Procedure: as §1

[22] = molecular target: T22, ET140-p15 (human, cysteine pairing not given here); assay: as above
T22 construct: also called peptide 15
T22 peptide: Biotin-SGSGSLLHACIPCQLRCSS
Procedure: as §1

[23] = molecular target: T23, ET140-p7 (human, cysteine pairing not given here); assay: as above
T23 construct: also called peptide 7
T23 peptide: Biotin-SGSGCSQNEYFDSLLHACI
Procedure: as §1

[24] = molecular target: T24, ET140-p10 (human, cysteine pairing not given here); assay: as above
T24 construct: also called peptide 10
T24 peptide: Biotin-SGSGNEYFDSLLHACIPCQ
Procedure: as §1

[25] = molecular target: T25, ET140-p34 (human, cysteine pairing not given here); assay: as above
T25 construct: also called peptide 34
T25 peptide: Biotin-SGSGLTCQRYCNASVTNSV
Procedure: as §1

[26] = molecular target: T26, ET140-p14 (human, cysteine pairing not given here); assay: as above
T26 construct: also called peptide 14
T26 peptide: Biotin-SGSGDSLLHACIPCQLRCS
Procedure: as §1

[27] = molecular target: T27, ET140-p36 (human, cysteine pairing not given here); assay: as above
T27 construct: also called peptide 36
T27 peptide: Biotin-SGSGCQRYCNASVTNSVKG
Procedure: as §1

[28] = molecular target: T3, ET140-p19; assay: peptide ELISA on streptavidin plate
Procedure: as §1

[29] = molecular target: T8, ET140-p35; assay: peptide ELISA on streptavidin plate
Procedure: as §1

[30] = molecular target: T15, ET140-p28; assay: peptide ELISA on streptavidin plate
Procedure: as §1

[31] = molecular target: T28, ET140-p6 (human, cysteine pairing not given here); assay: peptide ELISA on streptavidin plate
T28 construct: also called peptide 6
T28 peptide: Biotin-SGSGQCSQNEYFDSLLHAC
Procedure: as §1

[32] = molecular target: T21, ET140-p32; assay: peptide ELISA on streptavidin plate
Procedure: as §1

Measured: binding result

B1: ET140-174 mIgG1 (antibody, V domains shown)
VH: EVQLVQSGAEVKKPGESLKISCKGSGYSFTSYWIGWVRQMPGKGLEWMGIIYPGDSDTRYSPSFQGHVTISADKSISTAYLQWSSLKASDTAMYYCARYSGSFDNWGQGTLVTVSS
VL: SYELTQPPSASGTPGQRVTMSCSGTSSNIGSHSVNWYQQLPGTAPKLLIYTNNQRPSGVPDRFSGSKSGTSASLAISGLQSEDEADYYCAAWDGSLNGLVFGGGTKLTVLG
notes: also called ET140-24 mIgG1; ET140-24
not listed: [28] | [29] | [30] | [31] | [32]
no binding (tested: 1 ug/mL): all other assays above

B2: ET140-204 mIgG1 (antibody, V domains shown)
VH: EVQLVQSGAEMKKPGASLKLSCKASGYTFIDYYVYWMRQAPGQGLESMGWINPNSGGTNYAQKFQGRVTMTRDTSISTAYMELSRLRSDDTAMYYCARSQRDGYMDYWGQGTLVTVSS
VL: QSALTQPASVSASPGQSIAISCTGTSSDVGWYQQHPGKAPKLMIYEDSKRPSGVSNRFSGSKSGNTASLTISGLQAEDEADYYCSSNTRSSTLVFGGGTKLTVLG
notes: also called ET140-54 mIgG1; ET140-54
not listed: [28] | [29] | [30] | [31] | [32]
no binding (tested: 1 ug/mL): all other assays above

B3: ET140-153 mIgG1 (antibody, V domains shown)
VH: QVQLVQSGAEVKKPGSSVKVSCKASGGTFSSYAISWVRQAPGQGLEWMGRIIPILGIANYAQKFQGRVTITADKSTSTAYMELSSLRSEDTAVYYCARGGYYSHDMWSEDWGQGTLVTVSS
VL: LPVLTQPPSASGTPGQRVTISCSGRSSNIGSNSVNWYRQLPGAAPKLLIYSNNQRPPGVPVRFSGSKSGTSASLAISGLQSEDEATYYCATWDDNLNVHYVFGTGTKVTVLG
notes: also called ET140-3 mIgG1; ET140-3
no binding (tested: 1 ug/mL): [28] | [29] | [30] | [31] | [32]
